Laboratory results reported in patent publication US20120270784A1 (THERATECHNOLOGIES, published 2012).

T1: human GRF receptor (human, UniProt Q02643 23-423)
T1 sequence (looked up): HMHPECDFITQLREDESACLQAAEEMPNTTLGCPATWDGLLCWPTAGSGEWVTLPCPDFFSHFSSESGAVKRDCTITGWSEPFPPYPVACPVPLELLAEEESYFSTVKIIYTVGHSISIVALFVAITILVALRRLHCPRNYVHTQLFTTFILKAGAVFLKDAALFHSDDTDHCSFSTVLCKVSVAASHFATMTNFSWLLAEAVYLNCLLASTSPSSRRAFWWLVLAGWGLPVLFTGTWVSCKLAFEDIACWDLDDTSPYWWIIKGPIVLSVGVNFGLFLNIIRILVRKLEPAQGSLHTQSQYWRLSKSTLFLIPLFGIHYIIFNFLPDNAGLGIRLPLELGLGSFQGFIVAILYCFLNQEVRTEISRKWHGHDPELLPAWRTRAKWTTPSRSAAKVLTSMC


Molecular target: T1, human GRF receptor
Test: cell-based or functional assay

EC50 as assessed by alkaline phosphatase (AP) induction	Binder
0.11 nM	YXDAIFTDSYRKVLAQLKARQDILARAARAAR (HELM PEPTIDE1{Y.[dA].D.A.I.F.T.D.S.Y.R.K.V.L.A.Q.L.K.A.R.Q.D.I.L.A.R.A.A.R.A.A.R.[am]}$$$$V2.0; N-terminus assumed; SMILES CC[C@H](C)[C@H](NC(=O)[C@H](C)NC(=O)[C@H](CC(=O)O)NC(=O)[C@@H](C)NC(=O)[C@@H](N)Cc1ccc(O)cc1)C(=O)N[C@@H](Cc1ccccc1)C(=O)N[C@H](C(=O)N[C@@H](CC(=O)O)C(=O)N[C@@H](CO)C(=O)N[C@@H](Cc1ccc(O)cc1)C(=O)N[C@@H](CCCNC(=N)N)C(=O)N[C@@H](CCCCN)C(=O)N[C@H](C(=O)N[C@@H](CC(C)C)C(=O)N[C@@H](C)C(=O)N[C@@H](CCC(N)=O)C(=O)N[C@@H](CC(C)C)C(=O)N[C@@H](CCCCN)C(=O)N[C@@H](C)C(=O)N[C@@H](CCCNC(=N)N)C(=O)N[C@@H](CCC(N)=O)C(=O)N[C@@H](CC(=O)O)C(=O)N[C@H](C(=O)N[C@@H](CC(C)C)C(=O)N[C@@H](C)C(=O)N[C@@H](CCCNC(=N)N)C(=O)N[C@@H](C)C(=O)N[C@@H](C)C(=O)N[C@@H](CCCNC(=N)N)C(=O)N[C@@H](C)C(=O)N[C@@H](C)C(=O)N[C@@H](CCCNC(=N)N)C(N)=O)[C@@H](C)CC)C(C)C)[C@@H](C)O) [Y-a-DAIFTDSYRKVLAQLKARQDILARAARAAR-NH2 (SEQ ID NO: 28)]
0.18 nM	YXDAIFTDSYRKVLAQLKARQDLLARAARAAR (HELM PEPTIDE1{Y.[dA].D.A.I.F.T.D.S.Y.R.K.V.L.A.Q.L.K.A.R.Q.D.L.L.A.R.A.A.R.A.A.R.[am]}$$$$V2.0; N-terminus assumed; SMILES CC[C@H](C)[C@H](NC(=O)[C@H](C)NC(=O)[C@H](CC(=O)O)NC(=O)[C@@H](C)NC(=O)[C@@H](N)Cc1ccc(O)cc1)C(=O)N[C@@H](Cc1ccccc1)C(=O)N[C@H](C(=O)N[C@@H](CC(=O)O)C(=O)N[C@@H](CO)C(=O)N[C@@H](Cc1ccc(O)cc1)C(=O)N[C@@H](CCCNC(=N)N)C(=O)N[C@@H](CCCCN)C(=O)N[C@H](C(=O)N[C@@H](CC(C)C)C(=O)N[C@@H](C)C(=O)N[C@@H](CCC(N)=O)C(=O)N[C@@H](CC(C)C)C(=O)N[C@@H](CCCCN)C(=O)N[C@@H](C)C(=O)N[C@@H](CCCNC(=N)N)C(=O)N[C@@H](CCC(N)=O)C(=O)N[C@@H](CC(=O)O)C(=O)N[C@@H](CC(C)C)C(=O)N[C@@H](CC(C)C)C(=O)N[C@@H](C)C(=O)N[C@@H](CCCNC(=N)N)C(=O)N[C@@H](C)C(=O)N[C@@H](C)C(=O)N[C@@H](CCCNC(=N)N)C(=O)N[C@@H](C)C(=O)N[C@@H](C)C(=O)N[C@@H](CCCNC(=N)N)C(N)=O)C(C)C)[C@@H](C)O) [Y-a-DAIFTDSYRKVLAQLKARQDLLARAARAAR-NH2 (SEQ ID NO: 30)]
0.08 nM	YXDAIFTDSYRKVLAQLKLRQDILARAARAAR (HELM PEPTIDE1{Y.[dA].D.A.I.F.T.D.S.Y.R.K.V.L.A.Q.L.K.L.R.Q.D.I.L.A.R.A.A.R.A.A.R.[am]}$$$$V2.0; N-terminus assumed; SMILES CC[C@H](C)[C@H](NC(=O)[C@H](C)NC(=O)[C@H](CC(=O)O)NC(=O)[C@@H](C)NC(=O)[C@@H](N)Cc1ccc(O)cc1)C(=O)N[C@@H](Cc1ccccc1)C(=O)N[C@H](C(=O)N[C@@H](CC(=O)O)C(=O)N[C@@H](CO)C(=O)N[C@@H](Cc1ccc(O)cc1)C(=O)N[C@@H](CCCNC(=N)N)C(=O)N[C@@H](CCCCN)C(=O)N[C@H](C(=O)N[C@@H](CC(C)C)C(=O)N[C@@H](C)C(=O)N[C@@H](CCC(N)=O)C(=O)N[C@@H](CC(C)C)C(=O)N[C@@H](CCCCN)C(=O)N[C@@H](CC(C)C)C(=O)N[C@@H](CCCNC(=N)N)C(=O)N[C@@H](CCC(N)=O)C(=O)N[C@@H](CC(=O)O)C(=O)N[C@H](C(=O)N[C@@H](CC(C)C)C(=O)N[C@@H](C)C(=O)N[C@@H](CCCNC(=N)N)C(=O)N[C@@H](C)C(=O)N[C@@H](C)C(=O)N[C@@H](CCCNC(=N)N)C(=O)N[C@@H](C)C(=O)N[C@@H](C)C(=O)N[C@@H](CCCNC(=N)N)C(N)=O)[C@@H](C)CC)C(C)C)[C@@H](C)O) [Y-a-DAIFTDSYRKVLAQLKLRQDILARAARAAR-NH2 (SEQ ID NO: 29)]

Continued, binder first:

Binder	EC50 as assessed by alkaline phosphatase (AP) induction
YADAIFTDSYRKVLAQLKARQDILARAAR (HELM PEPTIDE1{[CC/C=C/CC(=O)[*:2]].Y.A.D.A.I.F.T.D.S.Y.R.K.V.L.A.Q.L.K.A.R.Q.D.I.L.A.R.A.A.R.[am]}$$$$V2.0; SMILES CC/C=C/CC(=O)N[C@@H](Cc1ccc(O)cc1)C(=O)N[C@@H](C)C(=O)N[C@@H](CC(=O)O)C(=O)N[C@@H](C)C(=O)N[C@H](C(=O)N[C@@H](Cc1ccccc1)C(=O)N[C@H](C(=O)N[C@@H](CC(=O)O)C(=O)N[C@@H](CO)C(=O)N[C@@H](Cc1ccc(O)cc1)C(=O)N[C@@H](CCCNC(=N)N)C(=O)N[C@@H](CCCCN)C(=O)N[C@H](C(=O)N[C@@H](CC(C)C)C(=O)N[C@@H](C)C(=O)N[C@@H](CCC(N)=O)C(=O)N[C@@H](CC(C)C)C(=O)N[C@@H](CCCCN)C(=O)N[C@@H](C)C(=O)N[C@@H](CCCNC(=N)N)C(=O)N[C@@H](CCC(N)=O)C(=O)N[C@@H](CC(=O)O)C(=O)N[C@H](C(=O)N[C@@H](CC(C)C)C(=O)N[C@@H](C)C(=O)N[C@@H](CCCNC(=N)N)C(=O)N[C@@H](C)C(=O)N[C@@H](C)C(=O)N[C@@H](CCCNC(=N)N)C(N)=O)[C@@H](C)CC)C(C)C)[C@@H](C)O)[C@@H](C)CC) [Trans-3-hexenoyl-YADAIFTDSYRKVLAQLKARQDILARAAR-NH2 (SEQ ID NO: 26)]	0.13 nM
Ac-YADAIFTDSYRKVLAQLSARKLLQDILSR-NH2 [Ac-YADAIFTDSYRKVLAQLSARKLLQDILSR-NH2 (SEQ ID NO: 43)]	0.25 nM
YADAIFTDSYRKVLAQLSARQDILARAARAAR (HELM PEPTIDE1{[CC/C=C/CC(=O)[*:2]].Y.A.D.A.I.F.T.D.S.Y.R.K.V.L.A.Q.L.S.A.R.Q.D.I.L.A.R.A.A.R.A.A.R.[am]}$$$$V2.0; SMILES CC/C=C/CC(=O)N[C@@H](Cc1ccc(O)cc1)C(=O)N[C@@H](C)C(=O)N[C@@H](CC(=O)O)C(=O)N[C@@H](C)C(=O)N[C@H](C(=O)N[C@@H](Cc1ccccc1)C(=O)N[C@H](C(=O)N[C@@H](CC(=O)O)C(=O)N[C@@H](CO)C(=O)N[C@@H](Cc1ccc(O)cc1)C(=O)N[C@@H](CCCNC(=N)N)C(=O)N[C@@H](CCCCN)C(=O)N[C@H](C(=O)N[C@@H](CC(C)C)C(=O)N[C@@H](C)C(=O)N[C@@H](CCC(N)=O)C(=O)N[C@@H](CC(C)C)C(=O)N[C@@H](CO)C(=O)N[C@@H](C)C(=O)N[C@@H](CCCNC(=N)N)C(=O)N[C@@H](CCC(N)=O)C(=O)N[C@@H](CC(=O)O)C(=O)N[C@H](C(=O)N[C@@H](CC(C)C)C(=O)N[C@@H](C)C(=O)N[C@@H](CCCNC(=N)N)C(=O)N[C@@H](C)C(=O)N[C@@H](C)C(=O)N[C@@H](CCCNC(=N)N)C(=O)N[C@@H](C)C(=O)N[C@@H](C)C(=O)N[C@@H](CCCNC(=N)N)C(N)=O)[C@@H](C)CC)C(C)C)[C@@H](C)O)[C@@H](C)CC) [Trans-3-hexenoyl-YADAIFTDSYRKVLAQLSARQDILARAARAAR-NH2 (SEQ ID NO: 27)]	0.19 nM
YADAIFTDSYRKVLAQLKARQDLLARAARAAR (HELM PEPTIDE1{[CC/C=C/CC(=O)[*:2]].Y.A.D.A.I.F.T.D.S.Y.R.K.V.L.A.Q.L.K.A.R.Q.D.L.L.A.R.A.A.R.A.A.R.[am]}$$$$V2.0; SMILES CC/C=C/CC(=O)N[C@@H](Cc1ccc(O)cc1)C(=O)N[C@@H](C)C(=O)N[C@@H](CC(=O)O)C(=O)N[C@@H](C)C(=O)N[C@H](C(=O)N[C@@H](Cc1ccccc1)C(=O)N[C@H](C(=O)N[C@@H](CC(=O)O)C(=O)N[C@@H](CO)C(=O)N[C@@H](Cc1ccc(O)cc1)C(=O)N[C@@H](CCCNC(=N)N)C(=O)N[C@@H](CCCCN)C(=O)N[C@H](C(=O)N[C@@H](CC(C)C)C(=O)N[C@@H](C)C(=O)N[C@@H](CCC(N)=O)C(=O)N[C@@H](CC(C)C)C(=O)N[C@@H](CCCCN)C(=O)N[C@@H](C)C(=O)N[C@@H](CCCNC(=N)N)C(=O)N[C@@H](CCC(N)=O)C(=O)N[C@@H](CC(=O)O)C(=O)N[C@@H](CC(C)C)C(=O)N[C@@H](CC(C)C)C(=O)N[C@@H](C)C(=O)N[C@@H](CCCNC(=N)N)C(=O)N[C@@H](C)C(=O)N[C@@H](C)C(=O)N[C@@H](CCCNC(=N)N)C(=O)N[C@@H](C)C(=O)N[C@@H](C)C(=O)N[C@@H](CCCNC(=N)N)C(N)=O)C(C)C)[C@@H](C)O)[C@@H](C)CC) [Trans-3-hexenoyl-YADAIFTDSYRKVLAQLKARQDLLARAARAAR-NH2 (SEQ ID NO: 32)]	0.11 nM
YADAIFTDSYRKVLAQLKARQDILARAARAAR (HELM PEPTIDE1{[CC/C=C/CC(=O)[*:2]].Y.A.D.A.I.F.T.D.S.Y.R.K.V.L.A.Q.L.K.A.R.Q.D.I.L.A.R.A.A.R.A.A.R.[am]}$$$$V2.0; SMILES CC/C=C/CC(=O)N[C@@H](Cc1ccc(O)cc1)C(=O)N[C@@H](C)C(=O)N[C@@H](CC(=O)O)C(=O)N[C@@H](C)C(=O)N[C@H](C(=O)N[C@@H](Cc1ccccc1)C(=O)N[C@H](C(=O)N[C@@H](CC(=O)O)C(=O)N[C@@H](CO)C(=O)N[C@@H](Cc1ccc(O)cc1)C(=O)N[C@@H](CCCNC(=N)N)C(=O)N[C@@H](CCCCN)C(=O)N[C@H](C(=O)N[C@@H](CC(C)C)C(=O)N[C@@H](C)C(=O)N[C@@H](CCC(N)=O)C(=O)N[C@@H](CC(C)C)C(=O)N[C@@H](CCCCN)C(=O)N[C@@H](C)C(=O)N[C@@H](CCCNC(=N)N)C(=O)N[C@@H](CCC(N)=O)C(=O)N[C@@H](CC(=O)O)C(=O)N[C@H](C(=O)N[C@@H](CC(C)C)C(=O)N[C@@H](C)C(=O)N[C@@H](CCCNC(=N)N)C(=O)N[C@@H](C)C(=O)N[C@@H](C)C(=O)N[C@@H](CCCNC(=N)N)C(=O)N[C@@H](C)C(=O)N[C@@H](C)C(=O)N[C@@H](CCCNC(=N)N)C(N)=O)[C@@H](C)CC)C(C)C)[C@@H](C)O)[C@@H](C)CC) [Trans-3-hexenoyl-YADAIFTDSYRKVLAQLKARQDILARAARAAR-NH2 (SEQ ID NO: 31)]	0.1 nM
